The target of assay [1] is T1, synthetic DEFA5 peptide residues 54-66 (…) (human).
T1 sequence (peptide): LRTSGSQARATCY
Kind of assay: SPR; synthetic peptides 54-66 (for 1A8) and 52-66 (for 4F5); who was immobilised is not told (Fig. S5). For orientation: Surface plasmon resonance follows binding to a sensor surface in real time, without labels.

Assay [2] deals with recombinant His-tagged human alpha-defensin 5 (DEFA5) construct, residues 23-94 behind a soluble fusion partner (human). As to the kind of experiment: ELISA; indirect ELISA: recombinant DEFA5 coated at 100 ng/mL in carbonate-bicarbonate buffer pH 9.6, antibodies 250-3.9 nM 1 h at room temperature; one-site specific binding fit; two experiments.
recombinant His-tagged human alpha-defensin 5 (DEFA5) construct, residues 23-94 behind a soluble fusion partner (human), sequence (Q01523 23-94): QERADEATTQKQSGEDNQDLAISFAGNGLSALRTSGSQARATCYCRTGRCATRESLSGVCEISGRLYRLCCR
Assay [3] has as its target T2, synthetic DEFA5 peptide residues 52-66 (…) (human).
T2 sequence (peptide): SALRTSGSQARATCY
As to the kind of experiment: SPR; synthetic peptides 54-66 (for 1A8) and 52-66 (for 4F5); who was immobilised is not told (Fig. S5).

Assay [4] has as its target mouse monoclonal antibody clone 1A8 (anti-DEFA5). Kind of assay: indirect ELISA. The following applies: chain shown with the change;; parent: est. 2.6; read off a plot. In general terms: In an ELISA, binding on a coated surface is turned into a signal by an enzyme label.
In assay [5] the target is mouse monoclonal antibody clone 4F5 (anti-DEFA5). As to the kind of experiment: indirect ELISA. To be noted: chain shown with the change;; parent: est. 2.2; read off a plot.

“And” between values parts separate entries of the source, which are not always exact repeats. Equal entries are not always repeated.

By Kd is commonly meant the free concentration of one partner at which half of the binding sites on the other are occupied at equilibrium, for simple one-to-one binding.

B1: mouse monoclonal antibody clone 1A8 (anti-DEFA5) (antibody, V domains shown)
VH: QVQLQQSGAELVRPGASVKMSCKALGYTFFDYEMHWMKQTPVYGLEWIGAIHPGSGDTAYNQKFKGKATLTADKSSNTAYMELSSLTSEDSAVYYCTREGTVVAPFDYWGQGTTLTVSS
VL: DVLMTQTPLSLPVSLGDQASISCRSSQSIVHSNGNTYLEWYLQKPGQSPKLLINKVSNRFSGVPDRFSGSGSGTDFTLKISRVEAEDLGVYYCFQGSYVPYTFGGGTKLEIK
Take B1: the equilibrium dissociation constant (Kd) in assay [1] is 303 µM; in assay [2], 0.0421 µM and 0.0455 µM.

B2: mouse monoclonal antibody clone 4F5 (anti-DEFA5) (antibody, V domains shown)
VH: B1 VH
VL: B1 VL
B2: the Kd was 4800 µM in assay [3]; 0.0534 µM and 0.0566 µM in assay [2].

Regarding RATCYCRTGRCATR [peptide No. 57 of the overlapping library, DEFA5 amino acids 61-75 (…) A1del], the figures for the response in assay [4] and in assay [5] were 2.6 OD450nm and 2.3 OD450nm, respectively.
